For this assay, the target named is T1, 人IL-6重组蛋白 (human, UniProt P05231 30-212, limits assumed).
T1 construct: also called 白细胞介素-6; 白介素6
Put plainly: indirect ELISA, IL-6 recombinant protein coated at 2 μg/ml, purified antibody from 10 μg/ml in 3-fold dilutions, HRP goat anti-mouse IgG.

This passage reports EC50 results from CN112279913A (TAIZHOU BAIYING BIOLOGICAL TECH CO LTD, dated 2021).

B1: 抗人IL-6单克隆抗体 克隆019:1-2H3 (antibody, V domains shown)
VH: QVQLQQSGPQLVRPGASVKISCKASGYSFNRSWMHWVKQRPGQGLEWIGMIDPSDTETRLNQKFKDKATLTVDESSSTAHMQFKRPTSEDSAVYYCARAYGFSIEFAYWGQGTLVTVSA
VL: DIQMSQTSSSLPASLGDRVTISCKASQDIRSYLNWYQQKPDGTVKLLIYYTSRLHSGVPSRFSGSGSGTDFSLTISNLEQEDIATYFCQQGATLPLTFGAGTKLELK
B1: the EC50 was less than 0.025 µg/mL.

B2: 抗人IL-6单克隆抗体 克隆019:8-3F8 (antibody, V domains shown)
VH: EVKLEESGGGLVQPGGSMKLSCAASGFTFSNYWMNWVRQSPEKGLEWVAEIRLRSNKYATHYAESVRGRFTISRDDSINYVYLQMNNLRAEDTGIYYCTRPRYEGTFDVWGAGTTVTVSS
VL: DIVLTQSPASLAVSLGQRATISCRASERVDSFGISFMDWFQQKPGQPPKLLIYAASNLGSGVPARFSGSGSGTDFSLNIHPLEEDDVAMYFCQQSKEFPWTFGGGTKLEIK
In the case of B2, the EC50 was less than 0.025 µg/mL.

Usually EC50 stands for the concentration needed to bring the measured effect to its halfway point.
